From IntAct's records for PubMed 15791205 come the findings set out here.

To fix the notation:
B1: Angiotensin-converting enzyme 2 (Rattus norvegicus (Rat)), Q5EGZ1 (parent)
chain: MSSSCWLLLSLVAVATAQSLIEEKAESFLNKFNQEAEDLSYQSSLASWNYNTNITEENAQKMNEAAAKWSAFYEEQSKIAQNFSLQEIQNATIKRQLKALQQSGSSALSPDKNKQLNTILNTMSTIYSTGKVCNSMNPQECFLLEPGLDEIMATSTDYNRRLWAWEGWRAEVGKQLRPLYEEYVVLKNEMARANNYEDYGDYWRGDYEAEGVEGYNYNRNQLIEDVENTFKEIKPLYEQLHAYVRTKLMEVYPSYISPTGCLPAHLLGDMWGRFWTNLYPLTTPFLQKPNIDVTDAMVNQSWDAERIFKEAEKFFVSVGLPQMTPGFWTNSMLTEPGDDRKVVCHPTAWDLGHGDFRIKMCTKVTMDNFLTAHHEMGHIQYDMAYAKQPFLLRNGANEGFHEAVGEIMSLSAATPKHLKSIGLLPSNFQEDNETEINFLLKQALTIVGTLPFTYMLEKWRWMVFQDKIPREQWTKKWWEMKREIVGVVEPLPHDETYCDPASLFHVSNDYSFIRYYTRTIYQFQFQEALCQAAKHDGPLHKCDISNSTEAGQKLLNMLSLGNSGPWTLALENVVGSRNMDVKPLLNYFQPLFVWLKEQNRNSTVGWSTDWSPYADQSIKVRISLKSALGKNAYEWTDNEMYLFRSSVAYAMREYFSREKNQTVPFGEADVWVSDLKPRVSFNFFVTSPKNVSDIIPRSEVEEAIRMSRGRINDIFGLNDNSLEFLGIYPTLKPPYEPPVTIWLIIFGVVMGTVVVGIVILIVTGIKGRKKKNETKREENPYDSMDIGKGESNAGFQNSDDAQTSF

In the first assay the parent is B1. Particulars: with spike_sars S.
As for N82M;F83Y;S84P, the “effect of a mutation on the interaction” value is listed as “causing an interaction”. On the same count and under the same terms, the same measure for H353K: “causing an interaction”.

Consider N82M;F83Y;S84P;H353K, for which the “effect of a mutation on the interaction” value is “causing an interaction”.

In the next assay the parent is B1. Particulars: with spike_sars S. This is another data set of the same source.
On to N82M;F83Y;S84P;H353K, for which the “effect of a mutation on the interaction” value is reported as “causing an interaction”.
